This test concerns the target His-tagged-YFP-PKI-NES. Put plainly: fluorescence polarisation.
Regarding “CRM1-1–1062 (from UniProt Q6P5F9 1-1062) (domain or fragment)”, the Kd (in general, the constant that tells how readily two partners part at equilibrium) came to 1700 nM.

“CRM1 HEAT 9 loop variant (VLV > AAA) (from UniProt Q6P5F9 1-1071) (natural protein)” returned a Kd of 200 nM. The figure for “wild type mouse CRM1 (1–1071) (from UniProt Q6P5F9 1-1071) (natural protein)” is 15600 nM; for “CRM1 1–1062 + VLV > AAA (from UniProt Q6P5F9 1-1062) (domain or fragment)” it is 25 nM.

The values are drawn from paper PMC3190738.
